Substitutions are numbered along the chain they refer to. Names and notes keep the numbering of the source.
B1: GenTNV148.26.12 (antibody, human IgG1, kappa, V domains shown)
VH: QVQLVESGGGVVQPGRSLRLSCAASGFIFSSYAMHWVRQAPGNGLEWVAFMSYDGSNKKYADSVKGRFTISRDNPKNTLYLQMNSLRAEDTAVYYCARDRGIAAGGNYYYYGMDVWGQGTTVTVSS
VL: EIVLTQSPATLSLSPGERATLSCRASQSVYSYLAWYQQKPGQAPRLLIYDASNRATGIPARFSGSGSGTDFTLTISSLEPEDFAVYYCQQRSNWPPFTFGPGTKVDIKR
notes: Hybridoma-derived human IgG1 kappa; also called C420A
B2: GenTNV86.14.34 (antibody, human IgG1, kappa, V domains shown)
VH: B1 VH
VL: B1 VL
notes: The constant region allotype is uncertain, as explained in the m8 note; also called C417A
B3: GenTNV15.28.11 (antibody, V domains shown)
VH: B1 VH with I28T, N43K, M51I, S52L, P75S, T78A, I102V, A103S
VL: EIVLTQSPATLSLSPGERATLSCRASQSVSSYLAWYQQKPGQAPRLLIYDASNRATGIPARFSGSGSGTDFTLTISSLEPEDFAVYYCQQRSNWPPFTFGPGTKVDIK
B4: golimumab (antibody, human IgG1, kappa, V domains shown)
VH: B1 VH with P75S
VL: B1 VL
modifications: N-glycosylated on asparagine 306
notes: Fully human IgG1 kappa; The commercial material is expressed in Sp2/0 cells; also called SIMPONI

What was measured:
[1] = molecular target: T1, recombinant human TNFα (human, UniProt P01375 77-233, 125I-labeled in the receptor inhibition assay); experiment: competition: 125I-TNFα binding to coated p55-sf2, hybridoma supernatants
T1 construct: It is not expressly tied to the assay protein, so it is not used here; also called huTNFα; tumor necrosis factor alpha
Method: (§1) 50:1 of p55-sf2 at 0.5:g/ml in PBS was added to Optiplates to coat the wells during a one-hour incubation at 37° C. Serial dilutions of the eight TNV cell supernatants were prepared in 96-well round-bottom plates using PBS/0.1% BSA as diluent. […] The mixture was preincubated for one hour at RT. The coated Optiplates were washed to remove unbound p55-sf2 and 50:1 of the ¹²⁵I-TNFα/cell supernatant mixture was transferred to the Optiplates. After 2 hrs at RT, Optiplates were washed three times with PBS-Tween. […] of Microscint-20 was added and the cpm bound determined using the TopCount gamma counter.
A simple binding assay was done to determine whether the eight TNV mAbs contained in hybridoma cell supernatant were capable of blocking TNFα binding to receptor. The concentrations of the TNV mAbs in their respective cell supernatants were first determined by standard ELISA analysis for human IgG.

[2] = molecular target: T1, recombinant human TNFα; experiment: cell-based or functional assay
[3] = molecular target: T1, recombinant human TNFα; experiment: competition radioligand assay: mAb in hybridoma supernatant preincubated with 5 ng/ml 125I-TNFα, then binding of 125I-TNFα to plate-coated p55-sf2 counted as cpm bound
Method: Varying amounts of hybridoma cell supernatants containing known amounts of TNV mAb were preincubated with a fixed concentration (5 ng/ml) of ¹²⁵I-labeled TNFα. […] The amount of TNFα that bound to the p55 receptor in the presence of the mAbs was determined after washing away the unbound material and counting using a gamma counter. […] Each sample was tested in duplicate. The results shown are representative of two independent experiments.
as §1
A simple binding assay was done to determine whether the eight TNV mAbs contained in hybridoma cell supernatant were capable of blocking TNFα binding to receptor.

[4] = molecular target: T2, human lymphotoxin (human, UniProt P01374 35-205, limits assumed); experiment: not described
T2 sequence (looked up): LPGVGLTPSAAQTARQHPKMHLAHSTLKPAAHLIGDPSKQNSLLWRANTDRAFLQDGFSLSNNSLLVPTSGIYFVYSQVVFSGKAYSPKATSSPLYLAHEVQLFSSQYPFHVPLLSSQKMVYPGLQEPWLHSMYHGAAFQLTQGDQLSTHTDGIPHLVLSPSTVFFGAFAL

| Binder | fold better at blocking TNF binding (against TNV118 and TNV14) [1] | neutralizing TNFα bioactivity [2] | IC50 (read off the curve) [3] | binding result [4] |
| --- | --- | --- | --- | --- |
| B1 | ~4 fold | 4 fold | ~3 ng/mL | – |
| B2 | ~4 fold | – | – | – |
| B3 | – | – | ~3 ng/mL | – |
| B4 | – | – | – | no binding |

— patent US20250019428A1 (Janssen / Centocor, published 2025)
